20 molecules from US20250197467A1 (BRIGHT PEAK THERAPEUTICS, published 2025) can be followed below.

For assay [1], the target named is T1, IL-18 receptor (IL-18Rαβ) on cells (UniProt Q13478 19-541; O95256 20-599, limits assumed).
T1 sequence (looked up) 1: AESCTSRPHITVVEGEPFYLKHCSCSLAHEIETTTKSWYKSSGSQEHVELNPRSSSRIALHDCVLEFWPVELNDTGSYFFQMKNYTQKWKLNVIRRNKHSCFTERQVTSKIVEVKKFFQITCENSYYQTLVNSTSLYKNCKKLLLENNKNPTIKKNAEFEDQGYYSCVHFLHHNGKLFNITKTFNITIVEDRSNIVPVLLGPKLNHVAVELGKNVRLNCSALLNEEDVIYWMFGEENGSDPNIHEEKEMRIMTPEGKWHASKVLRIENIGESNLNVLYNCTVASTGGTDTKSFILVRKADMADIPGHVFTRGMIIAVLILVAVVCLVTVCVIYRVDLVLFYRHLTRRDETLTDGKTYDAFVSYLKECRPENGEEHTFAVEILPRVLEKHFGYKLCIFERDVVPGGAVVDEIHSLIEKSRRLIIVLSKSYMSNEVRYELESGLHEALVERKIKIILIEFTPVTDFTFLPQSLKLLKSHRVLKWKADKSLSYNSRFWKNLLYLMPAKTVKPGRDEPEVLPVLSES
T1 sequence (looked up) 2: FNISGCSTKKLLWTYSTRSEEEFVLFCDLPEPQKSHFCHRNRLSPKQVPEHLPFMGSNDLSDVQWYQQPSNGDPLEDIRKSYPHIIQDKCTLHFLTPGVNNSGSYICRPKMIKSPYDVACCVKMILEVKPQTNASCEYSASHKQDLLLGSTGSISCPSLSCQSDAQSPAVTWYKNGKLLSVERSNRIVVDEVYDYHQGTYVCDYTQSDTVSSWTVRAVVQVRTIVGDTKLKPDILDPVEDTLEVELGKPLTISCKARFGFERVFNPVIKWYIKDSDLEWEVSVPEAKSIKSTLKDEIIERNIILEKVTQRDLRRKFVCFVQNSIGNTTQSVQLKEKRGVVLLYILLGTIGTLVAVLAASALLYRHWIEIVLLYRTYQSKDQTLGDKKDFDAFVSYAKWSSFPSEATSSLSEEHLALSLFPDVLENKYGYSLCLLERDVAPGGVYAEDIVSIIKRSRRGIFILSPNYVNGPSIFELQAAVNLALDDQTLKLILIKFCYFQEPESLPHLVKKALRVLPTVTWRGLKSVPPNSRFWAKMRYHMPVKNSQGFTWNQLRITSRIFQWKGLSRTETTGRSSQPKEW
Description: cell-based or functional assay.

The target of assay [2] is T1, IL-18 receptor (IL-18Rαβ) on cells. Description: cell-based or functional assay. The source holds these as a separate data set.

Values joined by “and” are separate entries in the source; they are usually repeats but may differ in a detail not shown here. Equal entries are not always repeated.

B1: SEQ ID NO 34 (ligand)
chain: YFGKLKSKLSVIRNLNDQVLFIDQGNRPLFEDMTDSDCRDNAPRTIFIISMYADAQPRGMAVTISVKCEKISTLSCENKIISFKEMNPPDNIKDTKSDIIFFQRSVPGHDNKMQFESSSYEGYFLACEKERDLFKLILKKEDELGDRSIMFTVQNED
In the case of B1, the “EC50 (IFNγ stimulation, NK92)” value in assay [1] is 0.824 nM. The “HEK-Blue IL-18R reporter EC50” value in assay [2] was 0.273 nM.

B2: SEQ ID NO 62 (ligand)
chain: YFGKLKSKLSVIRNLNDQVLFIDQGNRPLFEDMTDSDARDNAPRTIFIISMYADSQPRGMAVTISVKCEKISTLSCENKIISFKEMNPPDNIKDTKSDIIFFQRSVPGHDNKMQFESSSYEGYFLAAEKERDLFKLILKKEDELGDRSIMFTVQNED
With B2, in assay [1], the “EC50 (IFNγ stimulation, NK92)” value worked out at 0.026 nM. In assay [2], the “HEK-Blue IL-18R reporter EC50” value was determined as 0.00017 nM.

B3: C145 (ligand)
chain: YFGKLESKLSIIRNLNDQVLFIDQGNRPLFEDMTDSDARDNAPRTIFIISMYADAQPRGMAVTISVKCEKISTLSAENKIISFKEMNPPDNIKDTKSDIIFFQRSVPGHDNKMQFESSSYEGYFLAAEKERDLFKLILKKEDELGDRSIMFTVQNED
B3: the “EC50 (IFNγ stimulation, NK92)” value in assay [1] stood at 0.087 nM. In addition, the “HEK-Blue IL-18R reporter EC50” value in assay [2] was found to be 0.00363 nM.

B4: C143 (ligand)
chain: YFGKLESKLSIIRNLNDQVLFIDQGNRPLFEDMTDSDARDNAPRTIFIISMYADSQPRGMAVTISVKCEKISTLSAENKIISFKEMNPPDNIKDTKSDIIFFQRSVPGHDNKMQFESSSYEGYFLAAEKERDLFKLILKKEDELGDRSIMFTVQNED
For the molecule B4, the “EC50 (IFNγ stimulation, NK92)” value in assay [1] was determined as 0.138 nM. In addition, the “HEK-Blue IL-18R reporter EC50” value in assay [2] came out at 0.00098 nM.

B5: SEQ ID NO 50 (ligand)
chain: YFGKLKSKLSVIRNLNDQVLFIDQGNRPLFEDMTDSDCRDNAPRTIFIISMYADSQPRGMAVAISVKCEKISTLSCENKIISFKEMNPPDNIKDTKSDIIFFQRSVPGHDNKMQFESSSYEGYFLACEKERDLFKLILKKEDELGDRSIMFTVQNED
Regarding B5, in assay [1], the “EC50 (IFNγ stimulation, NK92)” value came to 0.0268 nM. The “HEK-Blue IL-18R reporter EC50” value in assay [2] turned out to be 0.00177 nM.

B6: SEQ ID NO 57 (ligand)
chain: YFGKLKSKLSVIRNLNDQVLFIDQGNRPLFEDMTDSDSRDNAPRTIFIISMYADSQPRGMAVTISVKCEKISTLSCENKIISFKEMNPPDNIKDTKSDIIFFQRSVPGHDNKMQFESSSYEGYFLACEKERDLFKLILKKEDELGDRSIMFTVQNED
For B6, the “EC50 (IFNγ stimulation, NK92)” value in assay [1] worked out at 0.045 nM. For the same molecule, the “HEK-Blue IL-18R reporter EC50” value in assay [2] was 0.00086 nM and 0.00053 nM.

B7: SEQ ID NO 54 (ligand)
chain: YFGKLKSKLSVIRNLNDQVLFIDQGNRPLFEDMTDSDSRDNAPRTIFIISMYADSQPRGMAVTISVKSECISTLSSENKIISFKEMNPPDNIKDTKSDIIFFQRSVPGHDNKMQFESSSYEGYFLASEKERDLFKLILKKEDELGDRSIMFTVQNED
Regarding B7, the “EC50 (IFNγ stimulation, NK92)” value in assay [1] was 0.962 nM. In assay [2], the “HEK-Blue IL-18R reporter EC50” value came out at 0.00912 nM.

B8: SEQ ID NO 9 (ligand)
chain: YFGKLKSKLSVIRNLNDQVLFIDQGNRPLFEDMTDSDARDNAPRTIFIISMYADSQPRGMAVTISVKAEKISTLSCENKIISFKEMNPPDNIKDTKSCIIFFQRSVPGHDNKMQFESSSYEGYFLACEKERDLFKLILKKEDELGDRSIMFTVQNED
For B8, in assay [1], the “EC50 (IFNγ stimulation, NK92)” value came to 0.069 nM.

B9: SEQ ID NO 59 (ligand)
chain: YFGKLKSKLSVIRNLNDQVLFIDQGNRPLFEDMTDSDARDNAPRTIFIISMYADSQPRGMAVTISVKCEKISTLSCENKIISFKEMNPPDNIKDTKSDIIFFQRSVPGHDNKMQFESSSYEGYFLACEKERDLFKLILKKEDELGDRSIMFTVQNED
For the molecule B9, in assay [1], the “EC50 (IFNγ stimulation, NK92)” value is 0.015 nM. The “HEK-Blue IL-18R reporter EC50” value in assay [2] was 0.000268 nM.

B10: C147 (ligand)
chain: YFGKLESKLSIIRNLNDQVLFIDQGNRPLFEDMTDSDARDNAPRTIFIISMYAASQPRGMAVTISVKCEKISTLSAENKIISFKEMNPPDNIKDTKSDIIFFQRSVPGHDNKMQFESSSYEGYFLAAEKERDLFKLILKKEDELGDRSIMFTVQNED
Regarding B10, the “EC50 (IFNγ stimulation, NK92)” value in assay [1] was determined as 0.079 nM. The “HEK-Blue IL-18R reporter EC50” value in assay [2] came to 0.001 nM.

B11: SEQ ID NO 4 (ligand)
chain: YFGKLKSKLSVIRNLNDQVLFIDQGNRPLFEDMTDSDARDNAPRTIFIISMYADSQPRGMAVTISVKAEKISTLSCENKIISFKECNPPDNIKDTKSDIIFFQRSVPGHDNKMQFESSSYEGYFLACEKERDLFKLILKKEDELGDRSIMFTVQNED
For B11, the “EC50 (IFNγ stimulation, NK92)” value in assay [1] came out at 0.022 nM.

B12: SEQ ID NO 42 (ligand)
chain: YFGKLKSKLSVIRNLNDQVLFIDQGNRPLFEDMTDSDCRDNAPRTIFIISMYADAQPRGMAVAISVKCEKISTLSCENKIISFKEMNPPDNIKDTKSDIIFFQRSVPGHDNKMQFESSSYEGYFLACEKERDLFKLILKKEDELGDRSIMFTVQNED
Regarding B12, in assay [1], the “EC50 (IFNγ stimulation, NK92)” value came out at 0.144 nM. Moreover, the “HEK-Blue IL-18R reporter EC50” value in assay [2] worked out at 0.00079 nM.

B13: C144 (ligand)
chain: YFGKLESKLSIIRNLNDQVLFIDQGNRPLFEDMTDSDARDNAPRTIFIISMYADSQPRGMAVAISVKCEKISTLSAENKIISFKEMNPPDNIKDTKSDIIFFQRSVPGHDNKMQFESSSYEGYFLAAEKERDLFKLILKKEDELGDRSIMFTVQNED
As for B13, the “EC50 (IFNγ stimulation, NK92)” value in assay [1] is 0.012 nM. Also, the “HEK-Blue IL-18R reporter EC50” value in assay [2] was 0.00017 nM.

B14: SEQ ID NO 55 (ligand)
chain: YFGKLESKLSVIRNLNDQVLFIDQGNRPLFEDMTDSDSRDNAPRTIFIISMYADSQPRGMAVAISVKSECISTLSSENKIISFKEMNPPDNIKDTKSDIIFFQRSVPGHDNKMQFESSSYEGYFLASEKERDLFKLILKKEDELGDRSIMFTVQNED
Turning to B14, the “EC50 (IFNγ stimulation, NK92)” value in assay [1] came to 17.2 nM.

B15: SEQ ID NO 6 (ligand)
chain: YFGKLKSKLSIIRNLNDQVLFIDQGNRPLFEDMTDSDARDNAPRTIFIISMYADSQPRGMAVAISVKAEKISTLSAENKIISFKEMNPPDNIKDTKSCIIFFQRSVPGHDNKMQFESSSYEGYFLAAEKERDLFKLILKKEDELGDRSIMFTVQNED
Regarding B15, the “EC50 (IFNγ stimulation, NK92)” value in assay [1] came to 1.37 nM.

B16: C146 (ligand)
chain: YFGKLESKLSIIRNLNDQVLFIDQGNRPLFEDMTDSDARDNAPRTIFIISGYADSQPRGMAVTISVKCEKISTLSAENKIISFKEMNPPDNIKDTKSDIIFFQRSVPGHDNKMQFESSSYEGYFLAAEKERDLFKLILKKEDELGDRSIMFTVQNED
Turning to B16, the “EC50 (IFNγ stimulation, NK92)” value in assay [1] was found to be 0.037 nM. The “HEK-Blue IL-18R reporter EC50” value in assay [2] turned out to be 0.0008 nM.

B17: C149 (ligand)
chain: YFGKLESKLSIIRNLNDQVLFIDQGNRPLFADMTDSDARDNAPRTIFIISMYADSQPRGMAVTISVKCEKISTLSAENKIISFKEMNPPDNIKDTKSDIIFFQRSVPGHDNKMQFESSSYEGYFLAAEKERDLFKLILKKEDELGDRSIMFTVQNED
For B17, in assay [1], the “EC50 (IFNγ stimulation, NK92)” value stood at 0.187 nM. For the same molecule, the “HEK-Blue IL-18R reporter EC50” value in assay [2] came to 0.0066 nM.

B18: C148 (ligand)
chain: YAGKLESKLSIIRNLNDQVLFIDQGNRPLFEDMTDSDARDNAPRTIFIISMYADSQPRGMAVTISVKCEKISTLSAENKIISFKEMNPPDNIKDTKSDIIFFQRSVPGHDNKMQFESSSYEGYFLAAEKERDLFKLILKKEDELGDRSIMFTVQNED
Turning to B18, in assay [1], the “EC50 (IFNγ stimulation, NK92)” value is 0.256 nM. Also, the “HEK-Blue IL-18R reporter EC50” value in assay [2] amounted to 0.00728 nM.

B19: SEQ ID NO 60 (ligand)
chain: YFGKLKSKLSVIRNLNDQVLFIDQGNRPLFEDMTDSDQRDNAPRTIFIISMYADSQPRGMAVTISVKCEKISTLSCENKIISFKEMNPPDNIKDTKSDIIFFQRSVPGHDNKMQFESSSYEGYFLACEKERDLFKLILKKEDELGDRSIMFTVQNED
Consider B19, for which the “EC50 (IFNγ stimulation, NK92)” value in assay [1] was 0.006 nM. Besides, the “HEK-Blue IL-18R reporter EC50” value in assay [2] was determined as 0.000203 nM.

B20: SEQ ID NO 5 (ligand)
chain: YFGKLKSKLSIIRNLNDQVLFIDQGNRPLFEDMTDSDARDNAPRTIFIISMYADSQPRGMAVAISVKAEKISTLSAENKIISFKECNPPDNIKDTKSDIIFFQRSVPGHDNKMQFESSSYEGYFLAAEKERDLFKLILKKEDELGDRSIMFTVQNED
Turning to B20, in assay [1], the “EC50 (IFNγ stimulation, NK92)” value came to 0.075 nM.
